{
  "source": "patent US20170204167A1",
  "binders": {"B1": {"name": "FI6 variant 2 (antibody, V domains shown)", "VH": "QVQLVQSGGGVVQPGRSLRLSCVASGFTFSTYAMHWVRQAPGRGLEWVAVISYDGNYKYYADSVKGRFSISRDNSNNTLHLEMNTLRTEDTALYYCAKDSQLRSLLYFEWLSQGYFDPWGQGTLVTVTS", "VL": "DIQMTQSPDSLAVSLGARATINCKSSQSVTFNYKNYLAWYQQKPGQPPKVLIYWASARESGVPDRFSGSGSGTDFTLTISSLQAEDVAVYYCQQHYRTPPTFGQGTKVEIK"}, "B2": {"name": "FI28 variant 1 (antibody, V domains shown)", "VH": "EVQLVESGGGAVQPGESLKLSCAASGFTFSNYGMHWVRQAPGKGLEWVAVISYDGSNKYYADSVKGRFTISRDNSKDTLYLQMNSLRAEDTALFYCAKERPLRLLRYFDWLSGGANDYWGQGTLVTVSS", "VL": "DIVMTQSPDSLAVSLGERATINCKSSQSVLYSSNNKNYLAWYQQKPGQPPKLLIDWASTRESGVPDRFSGSGSGTDFTLTISNLQVEDVAVYYCQQYYRSPSFGQGTKLEIK"}},
  "key": {"[1]": {"molecular_target": "HA of H3N2 A/Brisbane/10/07 (influenza A virus H3N2 A/Brisbane/10/07)", "assay": "ELISA on HA"}, "[2]": {"molecular_target": "HA of B/Ohio/1/05 (influenza B virus B/Ohio/1/05)", "assay": "ELISA on HA"}, "[3]": {"molecular_target": "HA of H3N2 A/Wyoming/3/03 (influenza A virus H3N2 A/Wyoming/3/03)", "assay": "ELISA on recombinant or purified HA"}, "[4]": {"molecular_target": "HA of H3N2 A/New York/55/04 (influenza A virus H3N2 A/New York/55/04)", "assay": "ELISA on recombinant or purified HA"}, "[5]": {"molecular_target": "HA of H3N2 A/Brisbane/10/07 (influenza A virus H3N2 A/Brisbane/10/07)", "assay": "ELISA on recombinant or purified HA"}, "[6]": {"molecular_target": "HA of H1N1 A/Brisbane/59/07 (influenza A virus H1N1 A/Brisbane/59/07)", "assay": "ELISA on recombinant or purified HA"}},
  "data": [
    {"binder": "B1", "values": [
      {"measurement": "Binding to HA by ELISA (% of subtype specific control antibodies)", "setting": "[1]", "result": 68.5, "unit": "%"},
      {"measurement": "EC50", "setting": "[2]", "result": "> 20", "unit": "µg/mL"},
      {"measurement": "EC50", "setting": "[3]", "result": 0.019, "unit": "µg/mL"},
      {"measurement": "EC50", "setting": "[4]", "result": 0.032, "unit": "µg/mL"},
      {"measurement": "EC50", "setting": "[5]", "result": 0.041, "unit": "µg/mL"},
      {"measurement": "EC50", "setting": "[6]", "result": 0.015, "unit": "µg/mL"}
    ]},
    {"binder": "B2", "values": [
      {"measurement": "Binding to HA by ELISA (% of subtype specific control antibodies)", "setting": "[1]", "result": 1.3, "unit": "%"}
    ]}
  ]
}
